Measurements reported in US20250154261A1 (published 2025).
Where two headings read alike, the source gives them in different places.

Columns and labels:
Assay in all cases: SPR captured Fab
[1] = biological target: Human CD33 R69G (human, UniProt P20138 18-259)
[2] = biological target: T1, V domain of human CD33 (human, UniProt P20138 18-139, limits assumed)
T1 construct: Whole entry named; also called Human CD33 V domain
Procedure: (§1) Kinetics and affinity of a series of Fab fragments of anti-CD33 antibodies with different CD33 variants (human CD33 ECD, cyno CD33 ECD, V-domain of human CD33, C-domain or human CD33 and selected CD33 SNPs) were assessed by surface plasmon resonance using Biacore 8K instrument (GE Healthcare). Anti-Fab antibody was immobilized on a CM5 chip using standard amine coupling chemistry. CD33 FABs were captured on the anti-Fab chip at a density of ˜100 RU. Solutions containing different concentrations of soluble monomeric CD33 or its domains were injected over the captured FABs and control surfaces at 30 μl/min at 37° C. Surfaces were regenerated between cycles by quick injection of 10 mM glycine, pH 1.8. To obtain kinetic rate constants double-referenced data were fit to a 1:1 interaction model using Biacore 8K Evaluation software (GE Healthcare). The equilibrium binding constant KD was determined by the ratio of binding rate constants kd/kₐ.

[3] = biological target: T1, V domain of human CD33; remark: listed apart in the source
Procedure: as §1

[4] = biological target: Human CD33 S128N (human, UniProt P20138 18-259)

Kd [1]: 3.83 nM | koff [1]: 0.00723 s⁻¹ | kon [1]: 1.89e+06 M⁻¹ s⁻¹ | koff [2]: 0.00225 s⁻¹ | koff [3]: 0.00225 s⁻¹ | Kd [4]: 2.65 nM | koff [4]: 0.00574 s⁻¹ | kon [4]: 2.17e+06 M⁻¹ s⁻¹
B1: ADI-11826 Fab (Fab, V domains shown)
VH: EVQLVESGGGLVQPGGSLRLSCAASGFTFPGYWMSWVRQAPGKGLEWVANINQDGSEVYYVDSVKGRFTISRDNAKNSLYLQMNSLRAEDTAVYYCAREANYYGNVGDDYWGQGTLVTVSS
VL: DIQMTQSPSSLSASVGDRVTITCRASQSIYNYLNWYQQKPGKAPKLLIYAASSTQSGVPSRFSGSGSGTDFTLTISSLQPEDFATYYCQQAFHVPITFGGGTKVEIK
notes: Fab fragment; also called Ab26
